Measurements as given in paper PMC8346289 (Journal of medicinal chemistry, 2014).

Target: the molecule itself
Assay: crystal structure

B1: K47A mutant of human thymidylate synthase (enzyme)
chain: MPVAGSELPRRPLPPAAQERDAEPRPPHGELQYLGQIQHILRCGVRADDRTGTGTLSVFGMQARYSLRDEFPLLTTKRVFWKGVLEELLWFIKGSTNAKELSSKGVKIWDANGSRDFLDSLGFSTREEGDLGPVYGFQWRHFGAEYRDMESDYSGQGVDQLQRVIDTIKTNPDDRRIIMCAWNPRDLPLMALPPCHALCQFYVVNSELSCQLYQRSGDMGLGVPFNIASYALLTYMIAHITGLKPGDFIHTLGDAHIYLNHIEPLKIQLQREPRPFPKLRILRKVEKIDDFKAEDFQIEGYNPHPTIKMEMAV
binding result: binds
